Data published in patent US20120156198A1 (Hoffmann-La Roche, published 2012).
Where “and” joins values, the source holds several entries; their conditions need not be identical. Identical values can stand only once.

What was measured:
[1] = molecular target: T1, recombinant human IL-18Rα Fc chimera (R&D Systems, Cat. No. 816-LR) (human, UniProt Q13478 19-329); experiment: SPR (BIACORE), 37°C, antibody captured, hIL-18Rα hFc chimera in solution; apparent KD, Langmuir 1:1
T1 construct: Bought protein; also called hIL-18Rα (hFc-chimera R&D-Systems 816-LR); recombinant human IL-18Rα-Fc fusion protein; not shown: human Fc of the commercial chimera
T1 sequence: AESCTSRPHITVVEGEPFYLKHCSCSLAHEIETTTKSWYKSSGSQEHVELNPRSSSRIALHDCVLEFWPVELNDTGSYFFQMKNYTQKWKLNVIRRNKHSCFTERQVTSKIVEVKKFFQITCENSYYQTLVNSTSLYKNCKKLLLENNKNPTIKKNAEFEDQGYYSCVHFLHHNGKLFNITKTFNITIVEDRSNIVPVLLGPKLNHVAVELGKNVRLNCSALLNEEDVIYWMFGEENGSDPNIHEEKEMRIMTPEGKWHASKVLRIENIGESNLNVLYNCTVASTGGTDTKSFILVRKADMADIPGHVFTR
Method: Coupling: amine coupling Buffer: 1×PBS (10×PBS, Ambion cat. AM9625), pH 7.4, 37° C. […] Association was measured by a hIL-18Rα-injection of 1.5 minutes at 37° C.; dissociation was measured by washing the chip surface with buffer for 10 minutes at 37° C. For calculation of apparent KD and other kinetic parameters the Langmuir 1:1 model was used.

[2] = molecular target: T1, recombinant human IL-18Rα Fc chimera …; experiment: competition ELISA: inhibition of biotinylated IL-18 (+IL-18Rβ) binding to captured IL-18Rα Fc chimera
Method: The test was performed on 384 well microtiter plates at room temperature (RT). After each incubation step plates were washed 3 times with PBST (Phosphate Buffered Saline Tween®-20). At the beginning, plates were coated with 0.5 μg/ml goat anti-human IgG Fc fragment (Jackson 1 mm. Res., US, Cat. No. 109-006-170) for at least 2 hours (h). Thereafter the wells were blocked with PBS supplemented with 0.1% Tween®-20 and 2% BSA (Roche Diagnostics GmbH, DE) for 1 h. 0.2 μg/ml of recombinant human IL-18Rα Fc chimera (R&D Systems, UK, Cat. No. 816-LR) was captured for 1 h. Dilutions of purified antibodies in PBS with 0.5% BSA and 0.05% Tween®-20 were incubated with the receptor protein for 1 h. Biotinylated human IL-18 (MBL International, US, Cat. No. B003-5) and 0.2 μg/ml IL-18R13 (R&D Systems, UK, Cat. No. 118-AP) were added for an additional hour to build up the trimeric complex. IL-18 was biotinylated with Sulfo-NHS-LC-Biotin (Thermo Scientific Pierce, US, Cat. No. 21327) according to the manufacturer's protocol and purified using Zeba™ Desalt Spin Column (Thermo Scientific Pierce, US, Cat. No. 89889). Binding of the biotinylated IL-18 to the complex was detected with 1:2000 diluted streptavidin HRP (Roche Diagnostics GmbH, DE, Cat. No. 11089153001). […] Absorbance was measured at 370 nm. […]

[3] = molecular target: T2, rhIL-1R3/hFc (R&D Systems, Cat. No. 676-CP) (human, UniProt Q9NPH3 21-359, limits assumed); experiment: ELISA, hFc fusion protein captured on anti-human Fc
T2 construct: Bought; not shown: human Fc (hFc) of the commercial protein
T2 sequence (looked up): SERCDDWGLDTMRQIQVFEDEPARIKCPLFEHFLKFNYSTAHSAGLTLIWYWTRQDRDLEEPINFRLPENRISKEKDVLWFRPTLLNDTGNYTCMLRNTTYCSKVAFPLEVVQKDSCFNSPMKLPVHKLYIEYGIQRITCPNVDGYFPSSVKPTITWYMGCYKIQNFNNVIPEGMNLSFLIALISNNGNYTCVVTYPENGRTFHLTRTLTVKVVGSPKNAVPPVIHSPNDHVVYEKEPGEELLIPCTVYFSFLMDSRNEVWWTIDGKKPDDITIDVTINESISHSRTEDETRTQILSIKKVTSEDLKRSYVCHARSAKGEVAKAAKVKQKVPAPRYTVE
Method: The test was performed on 384-well microtiter plates (MaxiSorp™, Thermo Scientific Nunc, DK, Cat. No. 464718) at RT. After each incubation step, plates were washed 3 times with PBST. At the beginning, plates were coated with 0.5 μg/ml goat anti-human IgG Fc fragment (Jackson 1 mm. Res., US, Cat. No. 109-006-170) for at least 2 hours (h). Thereafter the wells were blocked with PBS supplemented with 0.2% Tween®-20 and 2% BSA (Roche Diagnostics GmbH, DE) for 1 h. 0.2 μg/ml of recombinant human IL-18Rα-Fc fusion protein (R&D Systems, UK, Cat. No. 816-LR) was captured on plate for 1 h. For testing the binding of antibodies to other proteins of the IL-1 receptor family 0.2 μg/ml of the following recombinant human proteins conjugated to human Fc (hFc) were captured: [0194] rhIL-1RI/hFc (R&D Systems, UK, Cat. No. 269-1R) [0195] rhIL-1sRII/hFc (R&D Systems, UK, Cat. No. 263-2R) [0196] rhIL-1R3/hFc (R&D Systems, UK, Cat. No. 676-CP) [0197] rhIL-2Rα/hFc (R&D Systems, UK, Cat. No. 1020-RL) [0198] rhIL-7Rα/hFc (R&D Systems, UK, Cat. No. 306-IR) [0199] rhIL-15R/hFc (R&D Systems, UK, Cat. No. 147-IR) [0200] rhST-2/hFc (R&D Systems, UK, Cat. No. 523-ST)
After washing the plate, dilutions of purified antibodies in PBS with 0.05% BSA and 0.2% Tween®-20 were incubated with the receptor proteins for 1 h. Binding of antibodies was detected with 1:2000 diluted horseradish peroxidase (HRP)-conjugates of anti-mouse IgG (GE Healthcare, UK, Cat. No. NA9310V). After 1 h the plates were washed 6 times with PBST and developed with freshly prepared BM Blue® POD substrate solution (BM Blue®: 3,3″-5,5″-Tetramethylbenzidine, Roche Diagnostics GmbH, DE, Cat. No. 11484281001) for 30 minutes at RT. Absorbance was measured at 370 nm. The values were corrected for the control without antibody.

B1: Mab 1G12 (antibody, V domains shown)
VH: QVQLQQPGAELVKPGASVRMSCKTSDYTFTSNWMHWVKQRPGQGLEWIGTIDPSDSYTYYNQKFKGRATLTVDTSSSTAYMQLSSLTSEDSAVYYCTTSGDYDADRYFDVWGAGTTVTVSS
VL: DIVLTQSPASLGVSLGQRATISCRASKSVSTSGDSYMHWYQQKPGQSPKLLIYLASNLESGVPARFSGSGSGTDFTLNIHPVEEEDAATYYCQQSRELPLSFGAGTKLELK
notes: Monoclonal antibody from immunized NMRI mice; detected with anti-mouse IgG1-PE / anti-mouse IgG; also called F20.1G12; monoclonal antibody 1G12
For B1, the Kd [1] was 0.027 nM and the IC50 [2] was 0.022 µg/mL and 0.15 nM.

B2: Mab 2D11 (antibody, V domains shown)
VH: QVQLQQPGAELVKPGASVKMSCKASDYTFTSNWMHWVKQRPGQGLEWIGTIDPSDSYTYYNQKFKGKATLTVDTSSSTAYMHLSSLTSEDSAVYYCTTSGDYDADRYFDVWGAGTTVTVSS
VL: DIVLTQSPASLGVSLGQRATISCRASKSVSTSGDSYMHWYQQKPGQSPKLLIYLASNLESGVPARFSGSGSGTDFTLNIHPVEEEDAATYYCQQSRELPLSFGAGTKLELK
notes: Monoclonal antibody from immunized NMRI mice; detected with anti-mouse IgG1-PE / anti-mouse IgG; also called F20.2D11
B2 was tested, and the “absorbance at 370 nm (corrected for the control without antibody)” value [3] was 0.02, the Kd [1] was 0.027 nM and the IC50 [2] was 0.029 µg/mL and 0.19 nM.
